# Test results: publication PMC2266763, “Dimerization of the transmembrane domain of amyloid precursor proteins and familial Alzheimer's disease mutants” (BMC Neuroscience, 2008)
# B1: wild-type APP-TM peptide [modified: acceptor version: Glu with the fluorescent group EDANS covalently linked to its sidechain, after the N-terminal Lys-tag (in place of the Trp of the donor version); acceptor version: Glu with … (parent)
# chain 1: GAIIGLMVGGVVIATVIVITLVML
# chain 2: GAIIGLMVGGVVIATVIVITLVML
# B2: wild-type APP-TM peptide [modified: acceptor version: Glu with the fluorescent group EDANS covalently linked to its sidechain, after the N-terminal Lys-tag (in place of the Trp of the donor version); acceptor version: Glu with … (parent)
# chain: GAIIGLMVGGVVIATVIVITLVML
# Variants of: B1
# Experiment: FRET
# Settings: 50 µM total peptide concentration, equimolar wild-type and mutant (open bar), parent: 0.73, read off a plot
row,response [A/D ratio],Variant
1,0.44,chain 1 GAIIGLMVGGVVIAIVIVITLVML
2,0.43,chain 1 GAIIGLMVGGVVIATVIFITLVML
3,1.6,chain 1 GAIIGLMVGGVVIATVIGITLVML

# Same assay, conditions: 20 mM SDS, equimolar Trp-labeled wild-type and Edans-labeled V717G, 50 µM total peptide concentration (highest point of the curve), read off a plot
row,response [A/D ratio],Variant
1,1.6,chain 1 GAIIGLMVGGVVIATVIGITLVML

# Variants of: B2
# Experiment: FRET
# Settings: with itself; 50 µM total peptide concentration; homodimer (solid bar); parent: 0.73; read off a plot
row,response [A/D ratio],Variant
1,0.42,GAIIGLMVGGVVIAIVIVITLVML
